Substrate: Oc1ccc2ccc3cccc4ccc1c2c34
Experiment: SULT1A3 inhibition studies, 1-HP initial-rate fluorescence assay
Type: biochemical, human
Conditions: other: WT enzyme; saturating PAPS (500 μM, 17 × Km); pH 7.5; 25.0 °C
Description: The initial rates of SULT catalyzed 1-HP sulfonation are plotted as a function of inhibitor concentration, and are normalized relative to [inhibitor]=0. Enzyme activity was monitored by the sulfonation dependent change in 1-HP fluorescence (λex=325 nm, λem=370 nm). Less than 5% of the concentration-limiting substrate converted at the reaction endpoint was consumed during initial-rate measurements. Each point is the average of three independent determinations. Conditions: SULT (20 nM, active sites), PAPS (0.50 mM, 17×Km), 1-HP (5.0 μM, 61×Km), KPO4 (50 mM), pH 7.5, 25±2° C.
(§1) Initial-Rate Studies. Initial-rate parameters for the labeled or mutant SULT1A3 constructs were determined using a previously described 1-HP assay (25). […] Reactions were monitored via fluorescence change associated with the conversion of 1-HP to 1-HP-S (λex=325 nm, λem=370 nm). […] Reaction progress curves were analyzed to obtain initial-rate parameters as described previously (26,27). […]
as §1, with “(47).” for “(25).”, “(48,49).” for “(26,27).”

B1: SULT1A3 (Homo sapiens) (protein)
chain: MELIQDTSRPPLEYVKGVPLIKYFAEALGPLQSFQARPDDLLINTYPKSGTTWVSQILDMIYQGGDLEKCNRAPIYVRVPFLEVNDPGEPSGLETLKDTPPPRLIKSHLPLALLPQTLLDQKVKVVYVARNPKDVAVSYYHFHRMEKAHPEPGTWDSFLEKFMAGEVSYGSWYQHVQEWWELSRTHPVLYLFYEDMKENPKREIQKILEFVGRSLPEETMDFMVQHTSFKEMKKNPMTNYTTVPQELMDHSISPFMRKGMAGDWKTTFTVAQNERFDADYAEKMAGCSLSFRSEL
notes: Wild-type and mutant SULT1A3 coding regions were inserted into a pGEX-6P expression vector; N-His/GST/MBP triple-tag (N, cleaved yes); made in house; host or cells: E. coli BL21(DE3)
- Km: 82 (3) nM
- kcat: 2 s⁻¹

From patent US12291504B2, “Small molecule inhibition of sulfotransferase SULT1A3” (University of Pittsburgh—Of the Commonwealth System of …, priority 2018, dated 2025)
